From PMC10397247

Assays:
Experiment in all cases: two-hybrid library CCNG1;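 note: natural log of median RNA to DNA barcode read ratio; higher means stronger binding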
[1] = biological target: T1, 4H591-bA
T1 chain: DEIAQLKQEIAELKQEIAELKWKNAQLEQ

[2] = biological target: T2, 4H626-bA
T2 chain: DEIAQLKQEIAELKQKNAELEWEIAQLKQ

[3] = biological target: T3, 4H906-bA
T3 chain: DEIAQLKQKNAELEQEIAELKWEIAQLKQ

[4] = biological target: T4, P1A-bH
T4 chain: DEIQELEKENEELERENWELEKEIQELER

[5] = biological target: T5, 4H2745-bH
T5 chain: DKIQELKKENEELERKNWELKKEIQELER

[6] = biological target: T6, 4H344-bH
T6 chain: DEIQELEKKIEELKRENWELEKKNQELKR

[7] = biological target: T7, 4H363-bH
T7 chain: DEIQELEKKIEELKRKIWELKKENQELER

[8] = biological target: T8, 4H3907-bH
T8 chain: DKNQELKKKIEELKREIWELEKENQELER

[9] = biological target: T9, 4H3961-bH
T9 chain: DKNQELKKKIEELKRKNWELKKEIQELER

[10] = biological target: T10, 4H470-bH
T10 chain: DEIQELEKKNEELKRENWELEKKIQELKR

[11] = biological target: T11, 4H2944-bH
T11 chain: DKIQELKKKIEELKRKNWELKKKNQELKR

[12] = biological target: T12, 4H342-bH
T12 chain: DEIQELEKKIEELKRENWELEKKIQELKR

[13] = biological target: T13, 4H48-bH
T13 chain: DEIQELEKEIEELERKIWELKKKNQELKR

[14] = biological target: T14, 4H491-bH
T14 chain: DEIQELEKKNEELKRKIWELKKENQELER

[15] = biological target: T15, 4H170-bA
T15 chain: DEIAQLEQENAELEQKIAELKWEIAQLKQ

[16] = biological target: T16, 4H1831-bA
T16 chain: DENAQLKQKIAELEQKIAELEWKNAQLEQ

[17] = biological target: T17, 4H2586-bA
T17 chain: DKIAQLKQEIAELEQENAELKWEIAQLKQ

[18] = biological target: T18, 4H2627-bA
T18 chain: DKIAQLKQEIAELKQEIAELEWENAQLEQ

[19] = biological target: T19, 4H2673-bA
T19 chain: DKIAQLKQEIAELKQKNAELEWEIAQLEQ

[20] = biological target: T20, 4H2702-bA
T20 chain: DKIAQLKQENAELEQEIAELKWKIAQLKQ

[21] = biological target: T21, 4H3010-bA
T21 chain: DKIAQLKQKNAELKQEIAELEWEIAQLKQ

[22] = biological target: T22, 4H3112-bA
T22 chain: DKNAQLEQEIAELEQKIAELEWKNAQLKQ

[23] = biological target: T23, 4H3427-bA
T23 chain: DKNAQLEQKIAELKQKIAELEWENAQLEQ

[24] = biological target: T24, 4H346-bA
T24 chain: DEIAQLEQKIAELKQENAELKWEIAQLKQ

[25] = biological target: T25, 4H3926-bA
T25 chain: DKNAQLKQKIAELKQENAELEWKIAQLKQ

[26] = biological target: T26, 4H4073-bA
T26 chain: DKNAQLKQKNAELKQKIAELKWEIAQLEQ

[27] = biological target: T27, 4H457-bA
T27 chain: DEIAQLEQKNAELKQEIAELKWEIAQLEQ

[28] = biological target: T28, 4H575-bA
T28 chain: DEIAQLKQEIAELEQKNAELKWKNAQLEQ

[29] = biological target: T29, 4H683-bA
T29 chain: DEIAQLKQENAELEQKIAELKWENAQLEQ

[30] = biological target: T30, 4H754-bA
T30 chain: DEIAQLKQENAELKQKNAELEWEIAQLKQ

[31] = biological target: T31, 4H780-bA
T31 chain: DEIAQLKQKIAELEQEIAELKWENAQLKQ

[32] = biological target: T32, 4H797-bA
T32 chain: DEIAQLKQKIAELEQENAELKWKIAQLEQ

[33] = biological target: T33, 4H855-bA
T33 chain: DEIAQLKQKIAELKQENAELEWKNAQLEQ

[34] = biological target: T34, 4H918-bA
T34 chain: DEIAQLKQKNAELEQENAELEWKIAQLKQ

[35] = biological target: T35, 4H953-bA
T35 chain: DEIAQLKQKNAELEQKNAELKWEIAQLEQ

[36] = biological target: T36, 4H968-bA
T36 chain: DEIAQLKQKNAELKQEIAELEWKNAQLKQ

[37] = biological target: T37, 4H2442-bN
T37 chain: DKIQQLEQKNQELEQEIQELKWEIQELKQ

[38] = biological target: T38, 4H2576-bN
T38 chain: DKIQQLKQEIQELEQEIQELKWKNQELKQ

[39] = biological target: T39, 4H2618-bN
T39 chain: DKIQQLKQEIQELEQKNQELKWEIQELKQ

[40] = biological target: T40, 4H2667-bN
T40 chain: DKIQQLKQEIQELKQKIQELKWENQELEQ

[41] = biological target: T41, 4H2692-bA
T41 chain: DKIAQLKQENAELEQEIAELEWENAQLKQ

[42] = biological target: T42, 4H2729-bN
T42 chain: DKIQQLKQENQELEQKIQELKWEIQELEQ

[43] = biological target: T43, 4H2931-bA
T43 chain: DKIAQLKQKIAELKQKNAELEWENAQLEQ

[44] = biological target: T44, 4H3112-bN
T44 chain: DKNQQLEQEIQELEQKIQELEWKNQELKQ

[45] = biological target: T45, 4H3185-bN
T45 chain: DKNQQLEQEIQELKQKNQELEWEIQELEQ

[46] = biological target: T46, 4H331-bN
T46 chain: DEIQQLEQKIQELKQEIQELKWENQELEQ

[47] = biological target: T47, 4H3354-bN
T47 chain: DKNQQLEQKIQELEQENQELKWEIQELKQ

[48] = biological target: T48, 4H338-bN
T48 chain: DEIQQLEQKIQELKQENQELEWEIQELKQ

[49] = biological target: T49, 4H3427-bN
T49 chain: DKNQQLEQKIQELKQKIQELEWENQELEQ

[50] = biological target: T50, 4H3782-bN
T50 chain: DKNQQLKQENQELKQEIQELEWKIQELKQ

[51] = biological target: T51, 4H3855-bN
T51 chain: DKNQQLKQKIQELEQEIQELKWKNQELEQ

[52] = biological target: T52, 4H4001-bN
T52 chain: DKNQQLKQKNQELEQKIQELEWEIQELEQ

[53] = biological target: T53, 4H454-bN
T53 chain: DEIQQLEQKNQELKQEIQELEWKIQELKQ

[54] = biological target: T54, 4H568-bN
T54 chain: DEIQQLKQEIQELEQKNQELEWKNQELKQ

[55] = biological target: T55, 4H607-bN
T55 chain: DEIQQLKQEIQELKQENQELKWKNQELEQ

[56] = biological target: T56, 4H687-bN
T56 chain: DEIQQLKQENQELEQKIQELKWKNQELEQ

[57] = biological target: T57, 4H717-bN
T57 chain: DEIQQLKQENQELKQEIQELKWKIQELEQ

[58] = biological target: T58, 4H72-bN
T58 chain: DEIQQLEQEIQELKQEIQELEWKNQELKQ

[59] = biological target: T59, 4H754-bN
T59 chain: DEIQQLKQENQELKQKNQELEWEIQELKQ

[60] = biological target: T60, 4H797-bN
T60 chain: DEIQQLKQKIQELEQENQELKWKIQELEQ

[61] = biological target: T61, 4H883-bN
T61 chain: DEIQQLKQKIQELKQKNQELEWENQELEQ

[62] = biological target: T62, 4H908-bN
T62 chain: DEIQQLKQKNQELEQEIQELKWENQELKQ

[63] = biological target: T63, 4H918-bN
T63 chain: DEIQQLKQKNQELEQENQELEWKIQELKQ

[64] = biological target: T64, 4H953-bN
T64 chain: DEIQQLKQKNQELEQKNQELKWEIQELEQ

[65] = biological target: T65, 4H967-bN
T65 chain: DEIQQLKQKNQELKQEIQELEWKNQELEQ

B1: 4H591-bA (peptide)
chain: DEIAQLKQEIAELKQEIAELKWKNAQLEQ
Which results are given for B1?
interaction score [1]: 1.45; interaction score [2]: -1.82; interaction score [3]: -1.23; interaction score [4]: 0.0694

B2: 4H2745-bH (peptide)
chain: DKIQELKKENEELERKNWELKKEIQELER
With B2 as the binder, how does the interaction score [5] read?
The interaction score was -0.337.

What about the interaction score [6] of the same binder?
Its interaction score is -0.814.

What about the interaction score [7] of the same binder?
The interaction score was -0.763.

And the interaction score [8]?
Its interaction score is -0.566.

And the interaction score [9]?
The interaction score was -0.688.

And the interaction score [10]?
Its interaction score is 1.22.

B3: 4H2944-bH (peptide)
chain: DKIQELKKKIEELKRKNWELKKKNQELKR
For B3, which interaction score [11] is on record?
The interaction score was -0.179.

What about the interaction score [12] of the same binder?
Its interaction score is 0.551.

What about the interaction score [13] of the same binder?
The interaction score was 0.638.

And the interaction score [14]?
Its interaction score is -0.773.

B4: 4H170-bA (peptide)
chain: DEIAQLEQENAELEQKIAELKWEIAQLKQ
How did the interaction score [15] turn out when B4 was run?
The interaction score was 0.744.

And the interaction score [16]?
The interaction score was -1.05.

What about the interaction score [17] of the same binder?
The interaction score was -0.588.

What about the interaction score [18] of the same binder?
Its interaction score is 1.23.

And the interaction score [19]?
The interaction score was 1.01.

And the interaction score [20]?
Its interaction score is 2.21.

What about the interaction score [21] of the same binder?
The interaction score was 2.15.

And the interaction score [22]?
The interaction score was -0.374.

What about the interaction score [23] of the same binder?
Its interaction score is 0.122.

And the interaction score [24]?
Its interaction score is -1.19.

What about the interaction score [25] of the same binder?
The interaction score was 1.67.

And the interaction score [26]?
Its interaction score is 1.89.

And the interaction score [27]?
Its interaction score is 1.56.

What about the interaction score [28] of the same binder?
The interaction score was -0.482.

What about the interaction score [29] of the same binder?
The interaction score was -0.581.

What about the interaction score [30] of the same binder?
The interaction score was -0.923.

What about the interaction score [31] of the same binder?
Its interaction score is -0.413.

What about the interaction score [32] of the same binder?
The interaction score was -0.00525.

What about the interaction score [33] of the same binder?
Its interaction score is -0.225.

And the interaction score [34]?
Its interaction score is 0.927.

And the interaction score [35]?
Its interaction score is 0.253.

And the interaction score [36]?
The interaction score was 2.27.

B5: 4H2442-bN (peptide)
chain: DKIQQLEQKNQELEQEIQELKWEIQELKQ
Which results are given for B5?
interaction score [37]: -0.216; interaction score [38]: -0.32; interaction score [39]: 0.706; interaction score [40]: 0.241; interaction score [41]: -0.104; interaction score [42]: 0.367; interaction score [43]: 0.256; interaction score [44]: -0.821; interaction score [45]: -1.14; interaction score [46]: 0.796; interaction score [47]: -0.568; interaction score [48]: -0.476; interaction score [49]: -0.236; interaction score [50]: 0.148; interaction score [51]: -0.731; interaction score [52]: 0.0198; interaction score [53]: 0.883; interaction score [54]: -0.89; interaction score [55]: -1.3; interaction score [56]: -0.717; interaction score [57]: -1.28; interaction score [58]: -0.588; interaction score [59]: -0.65; interaction score [60]: -0.491; interaction score [61]: -0.738; interaction score [62]: -0.788; interaction score [63]: -0.127; interaction score [64]: -0.933; interaction score [65]: -0.892
